Reference: publication PMC4936685

Molecular target: Recombinant human latent TGF-β1 (small latent complex, SLC: LAP with mature TGF-β1) (human) (UniProt P01137)
Test: SPR; Biacore 3000; LAP or latent TGF-β1 amine-coupled to a CM5 chip (1000 RU); PSG9-Fc injected at 6, 4, 2, 1, 0.5 and 0.25 μM, 10 μl/min, 25°C, HBS-EP (0.01 M HEPES pH 7.4, 0.15 M NaCl, 3 mM EDTA, 0.005% P20); 1:1 Langmuir model

Chain of UniProt P01137 (P01137 whole entry, one chain of several): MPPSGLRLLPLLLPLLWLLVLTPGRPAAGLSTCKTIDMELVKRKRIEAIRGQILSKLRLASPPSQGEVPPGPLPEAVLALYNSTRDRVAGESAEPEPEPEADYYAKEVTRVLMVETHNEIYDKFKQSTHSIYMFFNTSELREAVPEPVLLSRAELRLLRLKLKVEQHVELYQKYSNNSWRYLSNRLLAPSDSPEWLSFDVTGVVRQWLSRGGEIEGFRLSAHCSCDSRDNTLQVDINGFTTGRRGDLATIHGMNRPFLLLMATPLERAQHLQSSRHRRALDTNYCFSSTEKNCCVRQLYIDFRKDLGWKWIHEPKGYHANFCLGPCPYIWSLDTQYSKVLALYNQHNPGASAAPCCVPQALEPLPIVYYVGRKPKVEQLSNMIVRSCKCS

Kd: 560 nM
koff: 0.00065 s⁻¹
kon: 1150 M⁻¹ s⁻¹
Substance: PSG9-Fc (recombinant human pregnancy-specific glycoprotein 9 with the N, A1, A2 and B2 domains, fused to the Fc of human IgG1) (from UniProt Q00887-1 35-426) (Fc fusion)
